What all share (assay): SPR
Data set [1] concerns the target T1, L7Ae-K (L7-K) (Archaeoglobus fulgidus, UniProt O29494 1-119, K37A).
The target in data set [2] is T2, L7Ae (Archaeoglobus fulgidus, UniProt O29494 1-119).
Data set [3] has as its target T1, L7Ae-K (L7-K). The source holds these as a separate data set.
Data set [4] concerns the target T2, L7Ae. This is another data set of the same source.

Read-outs that look alike come from different tables or passages of the source.

T2 sequence (O29494 whole entry): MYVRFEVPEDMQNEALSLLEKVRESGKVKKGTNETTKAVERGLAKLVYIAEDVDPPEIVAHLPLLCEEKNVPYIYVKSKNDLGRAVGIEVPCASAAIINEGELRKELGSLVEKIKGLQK
T1 sequence (O29494 whole entry K37A): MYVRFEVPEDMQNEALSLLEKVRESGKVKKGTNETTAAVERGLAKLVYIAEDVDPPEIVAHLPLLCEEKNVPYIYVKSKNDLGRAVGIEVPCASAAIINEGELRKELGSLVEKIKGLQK

The term Kd denotes the equilibrium constant for the complex coming apart. A low value points to higher affinity. In the case of GGAUCUGGGGUCUGAACGGUGAUGACCCGGAUCC (structured_RNA) [K-loop], the Kd in data set [1] came to 26 nM; in data set [2], 2.2 nM.
As for GGAUCUGGGGCGUGAUCCGAAAGGUGACCCGGAUCC (structured_RNA) [K-turn], the Kd in data set [3] is 15 nM; in data set [4] it was 1.6 nM.

For the origin of these results see article PMC4165468.
